Common to all, as to assay: cell-based or functional assay
Assay [1] addresses M663 ITAM-modified BCMA CAR (ISD: Linker 6-CD3ζ ITAM1-Linker 1-CD3ζ ITAM2-Linker 7-CD3ζ ITAM3-Linker 2) (UniProt P01732).
Assay [2] deals with M666 ITAM-modified BCMA CAR (ISD: Linker 6-CD3ζ ITAM2-Linker 1-CD3ζ ITAM2-Linker 7-CD3ζ ITAM2-Linker 2) (UniProt P01732).
The target in assay [3] is M665 ITAM-modified BCMA CAR (ISD: Linker 6-CD3ζ ITAM1-Linker 1-CD3ζ ITAM1-Linker 7-CD3ζ ITAM1-Linker 2) (UniProt P01732).
M665 ITAM-modified BCMA CAR (ISD: Linker 6-CD3ζ ITAM1-Linker 1-CD3ζ ITAM1-Linker 7-CD3ζ ITAM1-Linker 2), sequence (P01732 whole entry): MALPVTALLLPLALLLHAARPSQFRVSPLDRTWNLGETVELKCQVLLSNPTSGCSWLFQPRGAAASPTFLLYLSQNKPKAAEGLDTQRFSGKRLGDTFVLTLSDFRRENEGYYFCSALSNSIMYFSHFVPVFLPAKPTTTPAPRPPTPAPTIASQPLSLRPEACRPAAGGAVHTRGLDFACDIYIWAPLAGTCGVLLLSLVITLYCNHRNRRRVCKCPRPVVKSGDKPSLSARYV

M663 ITAM-modified BCMA CAR (ISD: Linker 6-CD3ζ ITAM1-Linker 1-CD3ζ ITAM2-Linker 7-CD3ζ ITAM3-Linker 2), sequence (P01732 whole entry): as above
M666 ITAM-modified BCMA CAR (ISD: Linker 6-CD3ζ ITAM2-Linker 1-CD3ζ ITAM2-Linker 7-CD3ζ ITAM2-Linker 2), sequence (P01732 whole entry): as above

Take wildtype SIV Nef: the Relative ISD-modified CAR expression (CAR positive rate, FACS with FITC-labeled human BCMA, normalized to empty vector control), day 3 after Nef transduction in assay [1] is 46.7%; in assay [2], 57%; in assay [3], 82.3%.

These data come from patent US20220289814A1.
